Source: paper doi:10.1101/2023.06.16.545277, “VAMP2 regulates phase separation of alpha-synuclein” (bioRxiv, 2023)

Target: wild-type human full-length alpha-synuclein (human, UniProt P37840 1-140)
Experiment: NMR titration; 1H-15N-BEST-TROSY chemical shift perturbation; 40 μM 15N-labelled aSYN fixed, peptide titrated; 20 mM phosphate buffer, pH 7.0, 10% 2H2O, 298 K
Settings: both partners purified

binding result: binds
B1: JMD long peptide (peptide)
peptide: KLKRKYWWKNLKMM
notes: VAMP2, full length of the juxtamembrane (JM) domain, aa 83-96; also called native JMD long peptide; JM-domain of VAMP2, aa 83-96; source: synthetic peptide (custom synthesis, Proteogenix)
